The target in assay [1] is T1, cynomolgus monkey DR4 with death domain deletion on ExpiCHO-S cells (cynomolgus monkey (Macaca fascicularis)).
T1 construct: also called cynomolgus DR4
T1 chain: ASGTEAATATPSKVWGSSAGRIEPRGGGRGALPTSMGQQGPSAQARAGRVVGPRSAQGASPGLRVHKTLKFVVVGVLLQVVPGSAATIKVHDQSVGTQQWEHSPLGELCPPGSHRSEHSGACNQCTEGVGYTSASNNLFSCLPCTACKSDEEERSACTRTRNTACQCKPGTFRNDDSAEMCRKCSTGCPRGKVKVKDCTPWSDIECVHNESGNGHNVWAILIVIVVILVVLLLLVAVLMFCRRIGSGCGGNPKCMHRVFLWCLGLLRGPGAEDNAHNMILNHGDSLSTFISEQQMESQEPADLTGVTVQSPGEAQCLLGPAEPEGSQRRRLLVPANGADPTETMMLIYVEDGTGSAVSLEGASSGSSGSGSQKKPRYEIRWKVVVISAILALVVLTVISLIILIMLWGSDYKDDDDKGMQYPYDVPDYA
As to the kind of experiment: flow cytometry, ExpiCHO-S cells expressing cynomolgus monkey DR4, average ± SEM. The protocol: (§1) Binding of BisG1-FAPα-FERL/DR4-FERR, BisG1-DR4-FEAL/b12-FEAR and IgG1-DR4-FERR to DR4 of various species commonly used for nonclinical toxicology studies was assessed by flow cytometry using ExpiCHO-S cells transiently expressing DR4 from different animal species. In contrast to other species, rodents only express one DR which has highest homology with human DR5. Therefore, ExpiCHO-S cells transiently expressing rat and mouse DR protein were used instead. All DR constructs lack the intracellular DD to avoid apoptosis of transfected cells upon DR(4) activation. IgG1-b12 was used as negative control.

In assay [2] the target is T1, cynomolgus monkey DR4 with death domain …. As to the kind of experiment: flow cytometry, ExpiCHO-S cells expressing cynomolgus monkey DR4, n = 1. The protocol: as §1
The target of assay [3] is T2, FcγRIIIa-V158 (CD16a Protein, Human, Recombinant (176 Val, His & AVI Tag)) (human, UniProt P08637 17-208).
T2 construct: Bought reagent; not shown: His & AVI tag
As to the kind of experiment: SPR (Biacore 8K), His-tagged FcγRIIIa-V158 captured on an anti-His chip, antibody as analyte, endpoint response against concentration. The method, then:
(§2) Binding of BisG1-FAPα-FERL/DR4-FERR to immobilized human His-tagged FcγRs and FcRn was analyzed by SPR using a Biacore 8K SPR system (Cytiva). To this end, anti-His antibodies were covalently immobilized on the surface of Biacore Series S Sensor Chip CM5 (Cytiva, Cat. #29104988) using the Amine Coupling Kit (Cytiva, Cat. #BR100050) and a His Capture Kit (Cytiva, Cat. #29234602) according to the manufacturer's instructions. To assess antibody binding to immobilized human FcγRs, aliquots of the recombinant His-tagged FcγR proteins (Table 24) were diluted in HBS EP+Buffer pH 7.4 (Cytiva, Cat. #BR100669) and used to capture the FcγR proteins on the surface of the anti-His antibody-coated sensors using a flow rate of 10 μL/min and a contact time of 60 s. Captured levels ranged from 434 to 592 RU. After three start-up cycles of HBS-EP+Buffer, concentration ranges of BisG1-FAPα-FERL/DR4-FERR or IgG1-b12 antibodies (Table 25) were injected to generate binding curves on FcγR-captured sensors (active surface). For each antibody sample, a parallel flow cell without captured FcγRs was included (reference surface), which was used for RU background correction.
(§3) All sensorgrams were subtracted by the signal of the third start-up cycle with buffer only (mock analyte). […]

Assay [4] concerns the target T3, FcγRIa (CD64 Protein, Human, Recombinant (ECD, His Tag)) (human, UniProt P12314 16-292).
T3 construct: extracellular domain; Bought reagent; not shown: His tag
As to the kind of experiment: SPR (Biacore 8K), His-tagged FcγRIa captured on an anti-His chip, antibody as analyte, endpoint response against concentration. The protocol:
as §2, §3

Assay [5] addresses T4, FcγRIIb (CD32B/Fcgr2b Protein, Human, Recombinant (His & AVI Tag), Biotinylated) (human, UniProt P31994 43-217, limits assumed, biotinylated).
T4 construct: Bought reagent; not shown: His & AVI tag
T4 sequence (looked up): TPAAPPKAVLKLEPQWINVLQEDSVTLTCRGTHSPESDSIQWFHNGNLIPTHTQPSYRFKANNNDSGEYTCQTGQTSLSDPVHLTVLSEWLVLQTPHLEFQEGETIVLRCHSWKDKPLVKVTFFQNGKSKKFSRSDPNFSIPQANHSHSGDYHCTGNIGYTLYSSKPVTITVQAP
As to the kind of experiment: SPR (Biacore 8K), His-tagged FcγRIIb captured on an anti-His chip, antibody as analyte, endpoint response against concentration. The method, then:
as §2, §3

T2 sequence (P08637 17-208 F176V limits assumed): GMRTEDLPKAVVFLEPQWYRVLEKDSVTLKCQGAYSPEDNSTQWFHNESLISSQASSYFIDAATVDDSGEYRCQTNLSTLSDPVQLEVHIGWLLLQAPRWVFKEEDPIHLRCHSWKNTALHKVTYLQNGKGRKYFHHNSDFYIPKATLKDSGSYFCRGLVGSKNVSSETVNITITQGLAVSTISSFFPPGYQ
T3 sequence (P12314 16-292): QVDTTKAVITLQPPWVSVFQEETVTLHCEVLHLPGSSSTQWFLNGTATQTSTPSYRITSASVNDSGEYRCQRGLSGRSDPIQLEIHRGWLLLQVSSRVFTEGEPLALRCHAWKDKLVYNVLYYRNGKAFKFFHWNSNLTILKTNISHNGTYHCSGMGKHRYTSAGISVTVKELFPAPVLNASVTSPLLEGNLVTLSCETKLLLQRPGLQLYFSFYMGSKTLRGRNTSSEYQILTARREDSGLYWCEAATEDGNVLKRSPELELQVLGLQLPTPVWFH

B1: IgG1-DR4-FERR (antibody, V domains shown)
VH: QVQLQESGPGLVKPSGTLSLTCAVSGGSISSYSWWSWIRQPPGKGLEWIGELYHSGSTNYNPSLKSRVTISVDKSKNQFSLKLRSVTAADTAVYYCVRGVATIDYWGQGTLVTVSS
VL: QSALTQPPSASGSPGQSVTISCTGTSSDVGGYNFVSWYQQDPGKAPKLLIYEVTKRPSGVPDRFSGSKSGNTASLTVSGLQAEDEADYYCSSYAGSNNVMFGGGTKLTVLG
notes: Bivalent monoclonal IgG1 lambda
B1: the EC50 in assay [1] came out at 1.84 µg/mL; in assay [2], 2.57 µg/mL.

B2: IgG1-b12 (antibody)
heavy: not shown
light: EIVLTQSPGTLSLSPGERATFSCRSSHSIRSRRVAWYQHKPGQAPRLVIHGVSNRASGISDRFSGSGSGTDFTLTITRVEPEDFALYYCQVYGASSYTFGQGTKLERKRTVAAPSVFIFPPSDEQLKSGTASVVCLLNNFYPREAKVQWKVDNALQSGNSQESVTEQDSKDSTYSLSSTLTLSKADYEKHKVYACEVTHQGLSSPVTKSFNRGEC
notes: HIV gp120 antibody b12 with wild-type IgG1 Fc; also called IgG-b12
Take B2: the binding result in assay [3], in assay [4] and in assay [5] was “binds” each time.

Values taken from patent publication US20250002610A1 (Genmab, published 2025).
